16 sequences from the DeepSol protein solubility set can be followed below.

A short description of this data set: soluble on expression in E. coli; label from the status in PepcDB or PDB records.
As to “MAAEGDFLMRYRAVSNKLKKRFLRKPNVAEASEQFGQLAKELKQQDCPQYAAFCNLAMARCEQTLFNAPGEALALTDAARLFLASEQETRALRAPGFDENMQAAMNCYSFAIKVYIEMNQPVMAARLSLELGNALKEMNRPGEAIIHFQRAAELQIQMPIEALLSLWEMASCKILTRDYDGALAVLSEMQHMCQERGLQLPGTNTPVGAFMDIIAKCEISRVLLLMLLEPPPQKLLPEHAQTLERYAWESFDSHSQMACQEKDTESLKALQTELW”, the “soluble on expression in E. coli” value was “not soluble”.

Take “MAAEGKAIAKVNDLVIFVPYVVPGDVVDLQIKRKKNKYAEAEAVKFHELSPVRAVPFCQHYGVCGGCKWQVLPYSEQIRYKQKQVEDNLRRIGKIELPEISPILGSAKTEFYRNKLEFTFSNKRWLTNDEVRQDVKYDQMNAVGFHIPGAFDKVLAIEKCWLQDDISNRIRNAVRDYAYEHDYSFINLRTQEGMLRNLIIRTSSTGELMVIVICKITEDHEMELFKQLLQFIADSFPEITSLLYIINNKCNDTINDLDVHVFKGKDHMFEEMEGLRFKVGPKSFYQTNSEQAYNLYKIAREFAGLTGKELVYDLYTGTGTIANFVSRQARQVIGIEYVPEAIEDAKVNAEINEIKNALFYAGDMKDMLTQEFINQHGRPDVIITDPPRAGMHQDVVDVILFAEPKRIVYVSCNPATQARDLQLLDGKYKVKAVQPVDMFPHTHHVENVVLLELR”: the “soluble on expression in E. coli” value is “not soluble”.

In the case of “MAAFEYKALDAKGKQKKGTIEGDNARQVRQRLKEQGMIPVEVVEAKAKAAKSSGSVGFKRGIKTAELALITRQLSTLVQSGMPLEECLRAVSEQAEKPRIRTMIAAVRSKVTEGYPLADSLGDYPHVFDELFRSMVAAGEKSGHLDTVLERLAEYVENRQKMRSKLLQA”, the “soluble on expression in E. coli” value is recorded as “not soluble”.

For the sequence “MAAQSDRYDAVLVQYGLRPVRMEQRGKAVKVYTNRGVFALKPLESEQEAAAVWQSLQHGGPRCLPLYLTRRRSLFATEGGRLYYLQAWHDGESKVEKDAADAFFRELARLHRATVRTIEVSEEEAAAYRKQKKDEWQRARTVWEERIERYEAAWYMSPFQLQCCTYFHEVMRAYSFAEERLDVWEETLKETKQWRIAWVHGKARLSHYIPPYWISWERAHWNSPLFDVIAALRFHVQTMPPLGREWLEGMEEYEKELPLSDGERAFLYSHLAEPRGFVRCLERYEAASRNERNEREYVAALQRRYLAFKNMEALVMHLVQRDAARQQEEAVDNEPPSDESSNG”, the “soluble on expression in E. coli” value is given as “not soluble”.

With “MAARTALGAVCRRLWQGLGNFSVNTSKGNTAKNGGLLLSTNMKWVQFSNLHVDVPKDLTKPVVTISDEPDILYKRLSVLVKGHDKAVLDSYEYFAVLAAKELGISIKA”, the “soluble on expression in E. coli” value was “not soluble”.

For the sequence “MAASASGKSKTSAGANRRRNRPSPRQRLLDSATNLFTTEGIRVIGIDRILREADVAKASLYSLFGSKDALVIAYLENLDQLWREAWRERTVGMKDPEDKIIAFFDQCIEEEPEKDFRGSHFQNAASEYPRPETDSEKGIVAAVLEHREWCHKTLTDLLTEKNGYPGTTQANQLLVFLDGGLAGSRLVHNISPLETARDLARQLLSAPPADYSI”, the “soluble on expression in E. coli” value is on record as “soluble”.

“MAATVRNLPALFRGLHSKEVCQKMSFSVSAAAKSEILVDTHGSKKVVTLNRPKALNALNLEMVREFYPKLQAWNSSSDVDLVILKGSGDKAFCAGGDVLAVVRSFKDSESGKECTMHKDFFREEYILNHLIGTLNKQYVCLIDGIVMGGGCGLSVNGRFRVATEKTMLAMPETALGLFPDVGGSYFLSRLKGNLGMYLALTGYRLLGADAFHAGLATHFVESSELAKLEKELVNIKDVTENSVDEVIRSFEPKKIPEFSLSKNLAQIRDSFKAKSVEEILASLEKDGSDWAKKQAATLGKMSPTSLKVTHRQITEGSKMSYAKIFTMEYRLTQRFLADKDFHEGCRAILVDKDRKPKWNPATLADVKDSVVDNYFSPLPNNSDLKL”: the “soluble on expression in E. coli” value was “not soluble”.

Regarding “MAAWKSWTALRLCATVVVLDMVVCKGFVEDLDESFKENRNDDIWLVDFYAPWCGHCKKLESIWNEVGLEMKSIGSPVKVGKMDATSYSSIASEFGVRGYPTIKLLKGDLAYNYRGPRTKDDIIEFAHRVSGALIRPLPSQQMFEHMQKRHRVFFVYVGGESPLKEKYIDAASELIVYTYFFSASEEVVPEVIFKI”, the “soluble on expression in E. coli” value is given as “soluble”.

For “MADAAEGEQPKLSKKELNKLARKAKKDEKAGEKGGNQQQAAAMDQEDASKDFYGSYGLVNSKEKKVLNFLKVKEINVSNATKDVWVRGRIHTTRSKGKNCFLVLRQGVYTVQVAMFMNEKISKQMLKFVSSISKESIVDVYATINKVDNPIESCTQKDVELLAQQVFVVSTSAPKLPLQIEDASRRAPTDEEKASEQENQLAVVNLDTRLDNRVIDLRTPTSHAIFRIQAGICNQFRNILDVRGFVEIMAPKIISAPSEGGANVFEVSYFKGSAYLAQSPQLYKQMAIAGDFEKVYTIGPVFRAEDSNTHRHMTEFVGLDLEMAFNFHYHEVMETIAEVLTQMFKGLQQNYQDEIAAVGNQYPAEPFQFCEPPLILKYPDAITLLRENGIEIGDEDDLSTPVEKFLGKLVKEKYSTDFYVLDKFPLSVRPFYTMPDAHDERYSNSYDMFMRGEEILSGAQRIHDADMLVERAKHHQVDLAKIQSYIDSFKYGCPPHAGGGIGLERVTMLFLGLHNIRLASLFPRDPKRLTP”, the “soluble on expression in E. coli” value is “not soluble”.

Take “MADAAKNALSSIFDKTKDVLSTAADATKGYASQAQQAIGKIIPGANHESDPNAAVAAAQAASGQPVDTTGGVPPAQ”: the “soluble on expression in E. coli” value is on record as “not soluble”.

Consider “MADDAGILYENSLDLLKSMKNFAGNVGEGEKKHPYGKAANAARAYGSGMKNSAASFNHSGEQFDKLFEACNTFKDQINGNVLAKLISFKDVECKDVDTQMTQLKKAQKDYANKKSKIVPDQVQVDAAEATLKKLLEEAKATLEKFNKTGCELLTQISADMKTGFDAYCDAAASIN”, for which the “soluble on expression in E. coli” value is listed as “not soluble”.

Consider “MADDLNAGPKANREFKNSVFTLLFNEEEAIRDISGAVGAMLGKEISPNTPIKKTTLQNALLGGKLNDLSFVLDDKLIVLIEHQSTINKNMPLRMLHYICEIYNHLYEKKDLYRKKKILIPKPVFIVLYNGEEDIKDFEEYLLSDLFKDFDISKEQPYLELRVQVRNINKGHSAEIVKQSPLLLDYVAFVEEVREVNKEEGMTPELAMEKAIENCIKKGILTVFLTRHKEEVMKMLVAEWDYDLDREVARDEGREEGREEGRTEETANNIKDLYRIGVSIETIAKAFGLSEHDVKDILGL”, for which the “soluble on expression in E. coli” value was “soluble”.

For the sequence “MADEATRRVVSEIPVLKTNAGPRDRELWVQRLKEEYQSLIRYVENNKNADNDWFRLESNKEGTRWFGKCWYIHDLLKYEFDIEFDIPITYPTTAPEIAVPELDGKTAKMYRGGKICLTDHFKPLWARNVPKFGLAHLMALGLGPWLAVEIPDLIQKGVIQHKEKCNQLEHHHHHH”, the “soluble on expression in E. coli” value is recorded as “soluble”.

With “MADEIFKAFIGGLPYDSIATDIETILKHCKFTDEELKKFDIHLVHDRDSGSFKGFAYVTFENEQQMNTAISGLNGADFGNRVLKVNRAQQRDRSDRGGGRGGRGGNFGDRGGRGRGAGGFRRGGEGGRFNEGERRGGFGGGGHRGGYRQRRESEEQHKAEETSDPSAPPAERPRLNLKPRTTDAAEIEARKKQEEEETKRRQEKLFQ”, the “soluble on expression in E. coli” value was “not soluble”.

For “MADESYDALSRGNKSNLRNEVVDMKKKPFSILFMGIEDYATKGQKGRSDSLIVVTLDPKNKTMKMLSIPRDTRVQLAGDTTGSKTKINAAYSKGGKDETVETVENFLQIPIDKYVTVDFDGFKDVINEVGGIDVDVPFDFDEKSDVDESKRIYFKKGEMHLNGEEALAYARMRKQDKRGDFGRNDRQKQILNALIDRMSSASNIAKIDKIAEKASENVETNIRITEGLALQQIYSGFTSKKIDTLSITGSDLYLGPNNTYYFEPDATNLEKVRKTLQEHLDYTPLEHHHHHH”, the “soluble on expression in E. coli” value is “soluble”.

With “MADHNNTPPFDLTKLDHYIKYQPREEAEDFFVHVEVKVLGKGSSPLEISFSTSVYEFVWEDEDCYELVELYEFFTEDAGIDAFEAQFLVNDLILYVNKTTRPLDEDFTGVFKLMAEVTLKPVQLNHAGSQKTESQQP”, the “soluble on expression in E. coli” value is given as “soluble”.
